Legend:
Assay in all cases: cell-based or functional assay
[1] = target: IL-10 receptor (hIL-10Rα and hIL-10Rβ) (human) (UniProt Q13651)
[2] = target: T1, IFN-γ receptor (IFNGR1 and IFNGR2) (UniProt P15260)
T1 sequence (looked up) 1: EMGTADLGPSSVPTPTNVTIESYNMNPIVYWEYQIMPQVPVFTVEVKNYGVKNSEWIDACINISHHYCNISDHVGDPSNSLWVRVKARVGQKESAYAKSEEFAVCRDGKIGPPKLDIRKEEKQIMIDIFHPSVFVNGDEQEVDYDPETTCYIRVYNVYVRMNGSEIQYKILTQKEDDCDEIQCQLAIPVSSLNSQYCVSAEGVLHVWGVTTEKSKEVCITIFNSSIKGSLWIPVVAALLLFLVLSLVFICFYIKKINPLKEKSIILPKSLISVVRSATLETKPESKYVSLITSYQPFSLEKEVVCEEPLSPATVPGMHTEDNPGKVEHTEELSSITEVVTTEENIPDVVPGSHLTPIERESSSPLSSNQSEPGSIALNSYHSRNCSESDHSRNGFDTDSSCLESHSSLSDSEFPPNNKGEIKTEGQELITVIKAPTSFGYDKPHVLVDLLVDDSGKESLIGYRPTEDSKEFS
T1 sequence (looked up) 2: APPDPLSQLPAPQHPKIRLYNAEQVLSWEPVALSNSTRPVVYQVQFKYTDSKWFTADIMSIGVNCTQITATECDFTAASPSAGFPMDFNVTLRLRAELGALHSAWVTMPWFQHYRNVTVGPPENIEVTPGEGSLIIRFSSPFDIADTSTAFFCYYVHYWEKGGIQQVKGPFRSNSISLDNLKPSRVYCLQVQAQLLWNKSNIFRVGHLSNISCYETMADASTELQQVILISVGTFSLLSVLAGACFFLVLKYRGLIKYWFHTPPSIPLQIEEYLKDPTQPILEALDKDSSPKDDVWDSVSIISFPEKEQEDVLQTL

[3] = target: IL-23 receptor complex (IL-12Rβ1 and IL-23R) (UniProt P42701)
[4] = target: human IL-12 receptor complex (IL-12Rβ1 and IL-12Rβ2) (human) (UniProt P42701)
Sequence of human IL-12 receptor complex (IL-12Rβ1 and IL-12Rβ2) (human) (Q99665 24-862, chain 2 of 2, other chains not shown): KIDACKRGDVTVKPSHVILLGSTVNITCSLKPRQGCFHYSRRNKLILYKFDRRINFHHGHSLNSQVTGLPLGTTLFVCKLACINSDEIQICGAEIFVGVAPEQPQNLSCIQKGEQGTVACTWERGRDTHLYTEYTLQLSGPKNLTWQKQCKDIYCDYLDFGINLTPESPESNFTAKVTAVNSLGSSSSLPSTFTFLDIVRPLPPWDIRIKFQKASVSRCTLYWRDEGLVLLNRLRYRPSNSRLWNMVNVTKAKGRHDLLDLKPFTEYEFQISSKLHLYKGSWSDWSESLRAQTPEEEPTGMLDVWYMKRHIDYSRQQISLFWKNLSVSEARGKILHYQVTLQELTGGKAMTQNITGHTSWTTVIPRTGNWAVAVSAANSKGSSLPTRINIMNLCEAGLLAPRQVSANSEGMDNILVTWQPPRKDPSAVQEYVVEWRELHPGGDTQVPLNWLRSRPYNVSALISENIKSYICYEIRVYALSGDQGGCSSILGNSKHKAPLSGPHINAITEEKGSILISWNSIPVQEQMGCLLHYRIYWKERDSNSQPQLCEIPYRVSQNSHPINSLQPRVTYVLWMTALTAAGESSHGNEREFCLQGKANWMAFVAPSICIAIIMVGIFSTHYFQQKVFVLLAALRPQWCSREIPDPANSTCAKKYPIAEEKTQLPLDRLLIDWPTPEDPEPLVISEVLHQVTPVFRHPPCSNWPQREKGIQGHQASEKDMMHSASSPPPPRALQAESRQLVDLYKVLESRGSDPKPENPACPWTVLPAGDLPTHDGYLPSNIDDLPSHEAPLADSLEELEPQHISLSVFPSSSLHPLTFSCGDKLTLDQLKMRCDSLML

Sequence of recombinant human IL-12 (P29459 23-219 limits assumed): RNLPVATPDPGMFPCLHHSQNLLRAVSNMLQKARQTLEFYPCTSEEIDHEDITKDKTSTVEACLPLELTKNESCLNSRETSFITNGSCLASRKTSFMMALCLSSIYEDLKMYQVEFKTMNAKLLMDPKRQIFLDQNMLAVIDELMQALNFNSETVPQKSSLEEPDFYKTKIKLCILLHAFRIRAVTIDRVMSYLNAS
Sequence of recombinant human IL-12 (P29460 23-328 limits assumed): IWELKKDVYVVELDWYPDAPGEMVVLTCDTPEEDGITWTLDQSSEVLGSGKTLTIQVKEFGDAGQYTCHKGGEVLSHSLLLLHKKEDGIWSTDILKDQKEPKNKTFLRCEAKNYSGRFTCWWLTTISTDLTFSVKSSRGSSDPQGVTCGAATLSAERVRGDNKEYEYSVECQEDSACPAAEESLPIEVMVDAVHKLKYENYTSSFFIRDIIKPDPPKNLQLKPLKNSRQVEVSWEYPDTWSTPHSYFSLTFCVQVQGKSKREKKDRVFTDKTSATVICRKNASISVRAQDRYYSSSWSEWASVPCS
Sequence of recombinant human IFN-γ (free state) (P01579 24-166 limits assumed): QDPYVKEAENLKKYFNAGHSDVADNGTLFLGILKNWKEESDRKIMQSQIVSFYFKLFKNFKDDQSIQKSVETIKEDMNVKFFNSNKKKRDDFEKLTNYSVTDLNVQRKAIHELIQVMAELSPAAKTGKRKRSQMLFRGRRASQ
Sequence of IL-23 receptor complex (IL-12Rβ1 and IL-23R) (Q5VWK5 24-629 limits assumed, chain 2 of 2, other chains not shown): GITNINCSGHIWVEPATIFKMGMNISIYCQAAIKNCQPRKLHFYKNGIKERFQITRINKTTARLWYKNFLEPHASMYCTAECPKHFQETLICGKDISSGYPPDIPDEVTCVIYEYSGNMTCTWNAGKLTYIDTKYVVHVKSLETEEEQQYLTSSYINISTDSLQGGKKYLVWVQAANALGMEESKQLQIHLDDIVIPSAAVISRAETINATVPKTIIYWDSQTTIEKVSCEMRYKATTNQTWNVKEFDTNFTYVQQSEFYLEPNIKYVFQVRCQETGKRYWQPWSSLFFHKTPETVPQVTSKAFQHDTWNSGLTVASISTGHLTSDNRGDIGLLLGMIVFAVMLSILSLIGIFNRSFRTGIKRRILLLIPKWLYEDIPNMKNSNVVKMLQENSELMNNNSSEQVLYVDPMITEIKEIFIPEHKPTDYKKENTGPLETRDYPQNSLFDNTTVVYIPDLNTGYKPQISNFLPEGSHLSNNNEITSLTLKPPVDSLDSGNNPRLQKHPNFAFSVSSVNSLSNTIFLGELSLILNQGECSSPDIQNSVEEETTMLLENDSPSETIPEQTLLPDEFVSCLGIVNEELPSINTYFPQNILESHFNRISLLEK
Sequence of IL-10 receptor (hIL-10Rα and hIL-10Rβ) (human) (Q13651 22-578, chain 1 of 2): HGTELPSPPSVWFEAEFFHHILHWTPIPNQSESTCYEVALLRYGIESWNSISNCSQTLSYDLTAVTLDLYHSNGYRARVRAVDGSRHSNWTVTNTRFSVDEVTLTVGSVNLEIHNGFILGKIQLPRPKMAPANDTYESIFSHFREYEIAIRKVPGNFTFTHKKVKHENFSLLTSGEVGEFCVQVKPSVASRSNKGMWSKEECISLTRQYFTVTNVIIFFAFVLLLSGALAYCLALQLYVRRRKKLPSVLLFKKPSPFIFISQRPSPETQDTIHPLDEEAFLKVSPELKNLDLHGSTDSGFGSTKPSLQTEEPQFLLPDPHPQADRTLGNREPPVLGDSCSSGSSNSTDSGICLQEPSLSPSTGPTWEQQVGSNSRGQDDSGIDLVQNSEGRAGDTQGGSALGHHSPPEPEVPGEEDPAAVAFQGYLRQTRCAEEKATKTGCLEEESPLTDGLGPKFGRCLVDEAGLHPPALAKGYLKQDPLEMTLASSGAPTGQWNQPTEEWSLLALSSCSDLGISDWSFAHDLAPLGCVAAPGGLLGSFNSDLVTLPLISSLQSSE
Sequence of IL-10 receptor (hIL-10Rα and hIL-10Rβ) (human) (Q08334 20-325, chain 2 of 2, further chain): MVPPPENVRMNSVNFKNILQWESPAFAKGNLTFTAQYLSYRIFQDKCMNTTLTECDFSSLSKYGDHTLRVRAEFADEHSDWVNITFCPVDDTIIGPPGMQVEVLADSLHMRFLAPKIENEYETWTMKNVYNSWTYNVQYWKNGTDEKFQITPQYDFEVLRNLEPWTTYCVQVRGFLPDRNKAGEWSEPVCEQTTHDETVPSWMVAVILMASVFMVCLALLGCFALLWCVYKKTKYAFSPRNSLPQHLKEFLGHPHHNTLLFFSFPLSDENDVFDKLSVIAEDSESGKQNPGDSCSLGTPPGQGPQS
Sequence of recombinant human IL-23 (free state) (Q9NPF7 20-189 limits assumed): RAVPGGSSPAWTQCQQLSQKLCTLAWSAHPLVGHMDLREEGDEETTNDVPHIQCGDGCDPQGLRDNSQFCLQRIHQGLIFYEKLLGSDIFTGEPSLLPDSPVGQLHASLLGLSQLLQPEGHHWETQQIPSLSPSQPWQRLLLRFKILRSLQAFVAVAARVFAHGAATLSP
Sequence of recombinant human IL-23 (free state) (P29460 23-328 limits assumed): as the sequence (P29460 23-328 limits assumed) above

Work on “recombinant human IL-10 (free state) (from UniProt P22301 19-178) (ligand)” yielded an IL-10 signal transduction, HEK-IL-10 cells, % of rIL-10 [1] of 100% and an IL-10 signal transduction, HEK-PD-1-IL-10 cells, % of rIL-10 [1] of 100%.

“recombinant human IFN-γ (free state) (from UniProt P01579 24-166) (ligand)” gave an IFN-γ signal transduction, HEK-IFN-γ [2] of 100%, an IFN-γ signal transduction, HEK-IFN-γ cells, % of rIFN-γ [2] of 100% and an IFN-γ signal transduction, HEK-IFN-γ-PD-1 [2] of 100%. The IFN-γ signal transduction, HEK-IFN-γ-TIGIT [2] was 100% and the IFN-γ signal transduction, HEK-PD-1-IFN-γ cells, % of rIFN-γ [2] was 100%.

“recombinant human IL-23 (free state) (from UniProt Q9NPF7 20-189; P29460 23-328) (ligand)” gave an IL-23 signal transduction, HEK-IL-23 cells, % of rIL-23 [3] of 100% and an IL-23 signal transduction, HEK-PD-1-IL-23 cells, % of rIL-23 [3] of 100%.

Substance “recombinant human IL-12 (from UniProt P29459 23-219; P29460 23-328) (ligand)” has an IFN-γ release, activated PBMC [4] of 2300 ng/mL, an IL-12 signal transduction, HEK IL-12 [4] of 100% and an IL-12 signal transduction, HEK-IL-12 [4] of 100%. It also gave an IL-12 signal transduction, HEK-IL-12-PD-1 [4] of 100%, an IL-12 signal transduction, HEK-IL-12-PD-1 (high) [4] of 100% and an IL-12 signal transduction, HEK-IL-12-PD-1 (low) [4] of 100%. It also gave an IL-12 signal transduction, HEK-IL-12-TIGIT [4] of 100%, an IL-12 signal transduction, HEK-IL-12 cells, % of rIL-12 [4] of 100% and an IL-12 signal transduction, HEK-PD-1-IL-12 [4] of 100%. The IL-12 signal transduction, HEK-PD-1-IL-12 cells, % of rIL-12 [4] was 100%.

— patent US20240392004A1
